Results published in publication PMC3584020.

Target: LexA-PRAME, P78395
Assay: yeast two hybrid
Settings: chain shown with the change; LexA-PRAME (1-509); β-galactosidase activity normalised to amount of protein in the extracts; parent: est. 160; read off a plot

Chain of LexA-PRAME, P78395 (P78395 whole entry): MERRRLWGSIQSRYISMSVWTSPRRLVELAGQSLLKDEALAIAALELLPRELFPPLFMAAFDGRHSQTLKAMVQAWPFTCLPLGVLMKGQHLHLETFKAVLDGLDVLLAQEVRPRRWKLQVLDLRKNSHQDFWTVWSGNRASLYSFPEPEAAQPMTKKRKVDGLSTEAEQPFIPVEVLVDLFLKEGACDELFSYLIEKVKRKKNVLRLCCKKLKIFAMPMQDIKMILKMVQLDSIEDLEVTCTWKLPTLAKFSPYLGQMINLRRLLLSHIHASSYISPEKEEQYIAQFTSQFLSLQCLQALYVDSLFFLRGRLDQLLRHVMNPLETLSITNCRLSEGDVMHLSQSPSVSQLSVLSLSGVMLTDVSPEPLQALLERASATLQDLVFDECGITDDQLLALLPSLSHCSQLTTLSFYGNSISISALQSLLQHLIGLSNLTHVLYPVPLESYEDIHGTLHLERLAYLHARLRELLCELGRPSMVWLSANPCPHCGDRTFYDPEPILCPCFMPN

B1: GAL4 AD-fused C. elegans ELC (wELC) L47D; L49D; Y88D; Y91D (protein)
chain: MADQNNAIQCDQDAAQPKQYGGIEGPTSQYVKLVSSDDHEFIIKREDADTSGTIRAMLSGPGVYAENESNVVYFREIPSHVLQKVCQDFADKVRYTHAATEIPEFPIPPDVALELLMAANFLDC
**Q.** Which response (Units β-Galactosidase) does the source give for B1 here?
**A.** 5
